What all share (assay): capture ELISA: Ab1 on anti-human IgG Fc, His-tagged receptor at 0.04 µg/mL, anti-His HRP
Background: ELISA stands for enzyme-linked immunosorbent assay.

For test [1], the target named is T1, hexahistidine tagged human IL-4Rα ECD G56R (human, UniProt P24394 26-232).
T1 construct: not shown: hexahistidine tag
The text has this: (§1) Example 2d. […] Briefly, thirty surface amino acid residue substitutions were introduced individually into hexahistidine tagged human IL-4Rα extra cellular domain (ECD) as follows: K2D, E6R, K22D, P26R, T31R, F41A, L42G, L43G, E45R, E52R, G56R, D66R, A71R, Q82G, K87D, E94R, H107A, D108R, P124R, D125R, D143R, R148D, L155R, R160D, S164R, S168R, Q181R, P192R, K195D, or H197G. Each mutant protein having a single amino acid residue substitution as described above was transiently expressed in CHO cells and purified using standard immobilized metal affinity chromatography techniques. […] The plates were then washed 3 times with PBST and the exemplified human IL-4Rα antibody was added to the wells at a final concentration of 1 μg/mL in PBS-casein and incubated for 1 hour at room temperature. The plates were washed 3 times with PBST, the IL-4Rα mutant proteins were serially diluted 5-fold from 1 μg/mL for 3 points. in PBS-casein and added to the plate at 50 μL/well and incubated for 1 hour at room temperature. The plates were washed 3 times with PBST and a 1000-fold dilution of anti-histidine tag antibody HRP conjugate (R&D Systems, Cat. #MAB050H) in PBS-casein was added and incubated for 45 minutes at room temperature. The plates were washed 3 times, TMB substrate (Pierce, Cat. #34028) was added per manufacturer instructions, the reaction was quenched with H₂SO₄, and absorbance was read at 450 nm on an ELISA plate reader.

In test [2] the target is T2, hexahistidine tagged human IL-4Rα ECD L43G (human, UniProt P24394 26-232).
T2 construct: not shown: hexahistidine tag
Excerpt: as §1

For test [3], the target named is T3, hexahistidine tagged human IL-4Rα ECD H197G (human, UniProt P24394 26-232).
T3 construct: not shown: hexahistidine tag
Excerpt: as §1

Test [4] has as its target T4, hexahistidine tagged human IL-4Rα ECD E45R (human, UniProt P24394 26-232).
T4 construct: not shown: hexahistidine tag
Excerpt: as §1

For test [5], the target named is T5, hexahistidine tagged human IL-4Rα ECD Q181R (human, UniProt P24394 26-232).
T5 construct: not shown: hexahistidine tag
Excerpt: as §1

Test [6] has as its target T6, hexahistidine tagged human IL-4Rα ECD Q82G (human, UniProt P24394 26-232).
T6 construct: not shown: hexahistidine tag
Excerpt: as §1

Test [7] addresses T7, hexahistidine tagged human IL-4Rα ECD E6R (human, UniProt P24394 26-232).
T7 construct: not shown: hexahistidine tag
Excerpt: as §1

Test [8] addresses T8, hexahistidine tagged human IL-4Rα ECD R160D (human, UniProt P24394 26-232).
T8 construct: not shown: hexahistidine tag
Excerpt: as §1

This note sets out measurements from patent US20240100176A1 (Eli Lilly, published 2024).

T5 sequence (P24394 26-232 Q206R): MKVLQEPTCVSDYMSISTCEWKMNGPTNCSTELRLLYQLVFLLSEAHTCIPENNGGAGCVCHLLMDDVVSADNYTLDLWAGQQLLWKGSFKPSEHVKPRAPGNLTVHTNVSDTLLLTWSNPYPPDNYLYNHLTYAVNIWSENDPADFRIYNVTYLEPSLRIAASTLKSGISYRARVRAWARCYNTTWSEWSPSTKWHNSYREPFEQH
T8 sequence (P24394 26-232 R185D): as the sequence (P24394 26-232 Q206R) above, with R160D, R181Q counted along it
T7 sequence (P24394 other isoform, or with tags, fused parts or gaps): as the sequence (P24394 26-232 Q206R) above, with E6R, R181Q counted along it
T3 sequence (P24394 26-232 H222G): as the sequence (P24394 26-232 Q206R) above, with R181Q, H197G counted along it
T4 sequence (P24394 26-232 E70R): as the sequence (P24394 26-232 Q206R) above, with E45R, R181Q counted along it

B1: anti-human IL-4Rα antibody Ab1 (antibody, human IgG4 S228P, kappa)
heavy: QVQLVESGGGLVQPGGSLRLSCVASGFTFSHSSMNWVRQAPGKGLEWVSYISRATGAVYYADSVKGRFTISRDNAKNSLYLQMNSLRDEDTAVYYCAREPVFDYWGQGTLVTVSSASTKGPCVFPLAPCSRSTSESTAALGCLVKDYFPEPVTVSWNSGALTSGVHTFPAVLQSSGLYSLSSVVTVPSSSLGTKTYTCNVDHKPSNTKVDKRVESKYGPPCPPCPAPEFLGGPSVFLFPPKPKDTLMISRTPEVTCVVVDVSQEDPEVKFNWYVDGVEVHNAKTKPREEQFNSTYRVVSVLTVLHQDWLNGKEYKCKVSNKGLPSSIEKTISKAKGQPREPQVYTLPPSREEMTKNQVSLTCLVKGFYPSDICVEWESNGQPENNYKTTPPVLDSDGSFFLYSRLTVDKSRWQQGNVFSCSVMHEALHNHYTQKSLSLSLG
light: DIQMTQSPSAMSASVGDRVTITCRASQDISNYLAWFQQKPGKVPTRLIYAASSLQSGVPSRFSGSGSGTEFTLTISSLQPEDFATYYCLQWSSYPRTFGQGTKVEIKRTVAAPSVFIFPPSDEQLKSGTASVVCLLNNFYPREAKVQWKVDNALQSGNSQESVTEQDSKDSTYSLSSTLTLSKADYEKHKVYACEVTHQGLSSPVTKSFNRGEC
notes: human kappa light chain; also called anti-human IL-4Rα Ab1; unconjugated Ab1
As for B1, the “ELISA (OD450)” value in test [1] was 1.17 OD450; in test [2], 1.35 OD450; in test [3], 0.967 OD450; in test [4], 1.58 OD450; in test [5], 1.17 OD450; in test [6], 1.1 OD450. The figures for the “ELISA (OD450)” value in test [7] and in test [8] were 0.915 OD450 and 1.2 OD450, respectively.
